Laboratory results: patent US20230024461A1, “METHODS FOR DUAL DNA/PROTEIN TAGGING OF OPEN CHROMATIN” (Beth Israel Deaconess Medical Center, Inc., priority 2019, published 2023)
“Also recorded” adds a separate entry of the source.

Columns and labels:
GM12878 nuclei = test: Peroxidase-mediated biotin labeling after transposition, western blot; type: biochemical, human
Procedure: Western blot. Whole cell lysate was generated by resuspending cells washed with 1×PBS in RIPA (Boston BioProducts) supplemented with 1× complete EDTA-free protease inhibitor cocktail (Roche). Cells were subject to sonication via a Sonic Dismembrator 100 (Fisher Scientific) at setting 2, with 3 pulses of 15 seconds on/off on ice. Lysates were clarified by centrifugation (15,000×g, 30 minutes, 4° C.) and their concentrations quantified with detergent-compatible Bradford assay (Thermo Fisher Scientific). All Western blots were run on NuPAGE 4-12% Bis-Tris protein gels (Thermo Fisher Scientific) and transferred to […] nitrocellulose membranes (GE Healthcare). Membranes were stained with Ponceau S, blocked with 3% milk in PBS-T, and incubated overnight with primary antibody and subsequently with secondary antibody after brief washing with PBS-T. Chemiluminescence was determined by applying ECL Western Blotting detection reagent (GE Healthcare) to membranes and imaging on an Amersham Imager 600 (GE Healthcare). Membranes were stripped with Restore PLUS Stripping Buffer (Thermo Fisher Scientific); streptavidin-HRP was inactivated with 15% hydrogen peroxide. […]

HT1080 cells = test: Co-immunofluorescence/ATAC-see analysis; type: cell-based, human
Procedure: Co-immunofluorescence/ATAC-see analysis. ATAC-see was performed similarly as previously described with slight modifications (Chen et al., Nat. Methods 13:1013-1020, 2016). Enzyme and transposon DNA were mixed at a 1:1.25 enzyme:MEDS-A/B-AF647 molar ratio and incubated at room temperature for 1 hour. Adherent cells were grown on glass coverslips (Fisher Scientific, 12-540A) until 80-90% confluent, washed with 1×PBS, fixed with 1% formaldehyde (Electron Microscopy Services) in 1×PBS for 10 minutes, and washed twice with ice-cold 1×PBS. Suspension cells were washed and resuspended with 1×PBS. 50,000 cells were added to poly-lysine slides and incubated at room temperature for 1 hour in a humidified chamber. An equal volume of 2% formaldehyde was added and incubated for 10 minutes, whereupon slides were washed twice with ice-cold 1×PBS. Immobilized cells were lysed by incubation with LB1 for 3 minutes followed by LB2 for 10 minutes at room temperature. Cells were then subject to tagmentation (20% dimethylformamide, 10 mM MgCl2, 20 mM Tris-HCl pH 7.5, 33% 1×PBS, 0.01% digitonin, 0.1% Tween-20, and either 80 pmol enzyme equivalent of enzyme:DNA complex in a total volume of 100 μL for adherent cells or 10 pmol enzyme equivalent of enzyme:DNA complex in a total volume of 50 μL for suspension cells) for 30 minutes at 37° C. in a humidified chamber. Subsequently, cells were washed with 50 mM EDTA and 0.01% SDS in 1×PBS three times for 15 minute each at 55° C., lysed for 10 minutes with 0.5% Triton X-100 in 1×PBS at room temperature, and blocked with 1% BSA and 10% goat serum in PBS-T for 1 hour in a humidified chamber. Primary antibody was added to slides in 1% BSA/PBS-T and incubated at 4° C. overnight; slides were then washed and subjected to secondary antibody staining for 1 hour. Slides were washed with PBS-T three times for 15 minutes each, stained with DAPI (Sigma, 1 μg/mL) for 1 minute, washed with PBS for 10 minutes, and mounted with Fluorescence Mounting Medium (Dako). Confocal microscopy images were taken with an LSM 880 Axio Imager 2 at 63× magnification (Zeiss). Images were processed with Fiji/ImageJ v2.0.0.
Primary antibodies used were anti-RNA polymerase II CTD repeat YSPTSPS (phospho S2) (rabbit, Abcam ab5095, 1:500), anti-H3K27Ac (rabbit, Abcam ab4729, 1:500), anti-H3K9me3 (rabbit, Abcam ab8898, 1:500), anti-CCDCl2 (rabbit, Atlas Antibodies HPA060530, 1:200), anti-SNRPA (mouse, 3F9-1F7, Sigma-Aldrich WH0006626M1, 1:100). […]
Quantitative image analyses were performed with CellProfiler v3.1.5. […] Pearson correlation coefficients were determined by comparing ATAC-see pixel intensities with corresponding immunofluorescence intensity values within each ROI to assess the nucleus-to-nucleus variation in colocalization. […]

B1: TP3: Tn5 transposase-AEAAAKEAAAKA linker-APEX2 peroxidase fusion, C-terminal FLAG; amino acid SEQ ID NO: 27 (protein)
chain: MITSALHRAADWAKSVFSSAALGDPRRTARLVNVAAQLAKYSGKSITISSEGSKAMQEGAYRFIRNPNVSAEAIRKAGAMQTVKLAQEFPELLAIEDTTSLSYRHQVAEELGKLGSIQDKSRGWWVHSVLLLEATTFRTVGLLHQEWWMRPDDPADADEKESGKWLAAAATSRLRMGSMMSNVIAVCDREADIHAYLQDKLAHNERFVVRSKHPRKDVESGLYLYDHLKNQPELGGYQISIPQKGVVDKRGKRKNRPARKASLSLRSGRITLKQGNITLNAVLAEEINPPKGETPLKWLLLTSEPVESLAQALRVIDIYTHRWRIEEFHKAWKTGAGAERQRMEEPDNLERMVSILSFVAVRLLQLRESFTPPQALRAQGLLKEAEHVESQSAETVLTPDECQLLGYLDKGKRKRKEKAGSLQWAYMAIARLGGFMDSKRTGIASWGALWEGWEALQSKLDGFLAAKDLMAQGIKIAEAAAKEAAAKAGKSYPTVSADYQDAVEKAKKKLRGFIAEKRCAPLMLRLAFHSAGTFDKGTKTGGPFGTIKHPAELAHSANNGLDIAVRLLEPLKAEFPILSYADFYQLAGVVAVEVTGGPKVPFHPGREDKPEPPPEGRLPDPTKGSDHLRDVFGKAMGLTDQDIVALSGGHTIGAAHKERSGFEGPWTSNPLIFDNSYFTELLSGEKEGLLQLPSDKALLSDPVFRPLVDKYAADEDAFFADYAEAHQKLSELGFADADYKDDDDK
modifications: C-terminal FLAG
- biotinylation signal (streptavidin) (GM12878 nuclei): highest signals
- ATAC-see correlation with H3K9me3 immunofluorescence (HT1080 cells; marker of transcriptionally inactive chromatin): poorly correlating; also recorded: similarly poor correlations
- ATAC-see correlation with H3K27Ac and RNAPII S2P immunofluorescence signal (HT1080 cells; markers of transcriptionally active chromatin): strongly correlating; also recorded: similarly positive correlations
